Source: patent publication US20260365739 (published 2026)

molecular target: EGFR (human, UniProt P00533); assay: SPR

Row | Binder | Kd [nM]
1 | EG2 (antibody, V domains shown) VH: QVQLVESGGGLVQAGDSLRVSCAASGRDFSDYVMGWFRQAPGKEREFVAAISRNGLTTRYADSVKGRFTISRDNDKNMVYLQMNSLKPEDTAVYYCAVNSAGTYVSPRSREYDYWGQGTQVTVSS | 14.6
2 | EG2_24_86 (antibody, V domains shown) VH: QVQLVESGGGLVQAGDSLRVSCCASGRDFSDYVMGWFRQAPGKEREFVAAISRNGLTTRYADSVKGRFTISRDNDKNCVYLQMNSLKPEDTAVYYCAVNSAGTYVSPRSREYDYWGQGTQVTVSS | 62.5
3 | EG2_22_88 (antibody, V domains shown) VH: QVQLVESGGGLVQAGDSLRVCCAASGRDFSDYVMGWFRQAPGKEREFVAAISRNGLTTRYADSVKGRFTISRDNDKNMVCLQMNSLKPEDTAVYYCAVNSAGTYVSPRSREYDYWGQGTQVTVSS | 47.2
4 | EG2_4_25 (antibody, V domains shown) VH: QVQCVESGGGLVQAGDSLRVSCACSGRDFSDYVMGWFRQAPGKEREFVAAISRNGLTTRYADSVKGRFTISRDNDKNMVYLQMNSLKPEDTAVYYCAVNSAGTYVSPRSREYDYWGQGTQVTVSS | 10.6
5 | EG2_6_119 (designed binder) QVQLVCSGGGLVQAGDSLRVSCAASGRDFSDYVMGWFRQAPGKEREFVAAISRNGLTTRYADSVKGRFTISRDNDKNMVYLQMNSLKPEDTAVYYCAVNSAGTYVSPRSREYDYWCQGTQVTVSS | 25.7

molecular target: IGF1R (human, UniProt P08069); assay: SPR
Sequence (P08069 31-932): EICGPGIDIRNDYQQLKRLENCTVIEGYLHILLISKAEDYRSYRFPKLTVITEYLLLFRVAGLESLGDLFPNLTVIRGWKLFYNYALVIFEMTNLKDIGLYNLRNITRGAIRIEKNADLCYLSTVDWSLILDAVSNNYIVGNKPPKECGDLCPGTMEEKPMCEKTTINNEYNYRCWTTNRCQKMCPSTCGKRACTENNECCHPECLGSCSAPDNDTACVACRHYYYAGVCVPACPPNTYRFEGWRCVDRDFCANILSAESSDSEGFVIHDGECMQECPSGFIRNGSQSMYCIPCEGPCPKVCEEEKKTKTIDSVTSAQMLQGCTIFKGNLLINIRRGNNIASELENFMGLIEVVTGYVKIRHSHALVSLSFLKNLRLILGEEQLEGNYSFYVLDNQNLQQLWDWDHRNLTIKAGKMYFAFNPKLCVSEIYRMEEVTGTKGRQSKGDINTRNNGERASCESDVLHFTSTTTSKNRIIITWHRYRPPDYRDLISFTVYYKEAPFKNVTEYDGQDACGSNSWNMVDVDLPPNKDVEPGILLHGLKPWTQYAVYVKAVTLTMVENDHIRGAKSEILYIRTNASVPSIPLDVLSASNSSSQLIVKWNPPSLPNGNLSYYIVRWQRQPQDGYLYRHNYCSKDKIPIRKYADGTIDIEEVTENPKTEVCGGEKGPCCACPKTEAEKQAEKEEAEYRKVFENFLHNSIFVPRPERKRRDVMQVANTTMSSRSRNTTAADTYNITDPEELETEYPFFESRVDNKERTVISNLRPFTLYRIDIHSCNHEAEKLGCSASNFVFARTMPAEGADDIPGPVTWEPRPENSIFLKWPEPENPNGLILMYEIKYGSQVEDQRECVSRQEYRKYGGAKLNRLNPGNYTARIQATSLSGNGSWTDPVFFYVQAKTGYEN

Row | Binder | Kd [nM]
6 | IGF1R3_6_119 (designed binder) QVKLECSGGGLVQAGGSLRLSCVASEYPSNFYAMSWFRQAPGKEREFVAGVSRDGLTTLYADSVKGRFTMSRDNAKNTVDLQMNSVKAEDTAVYYCAIVITGVWNKVDVNSRSYHYWCQGTQVTVSS | 1.4
7 | IGF1R3_22_88 (antibody, V domains shown) VH: QVKLEESGGGLVQAGGSLRLCCVASEYPSNFYAMSWFRQAPGKEREFVAGVSRDGLTTLYADSVKGRFTMSRDNAKNTVCLQMNSVKAEDTAVYYCAIVITGVWNKVDVNSRSYHYWGQGTQVTVSS | 0.8
8 | IGF1R3_4_25 (antibody, V domains shown) VH: QVKCEESGGGLVQAGGSLRLSCVCSEYPSNFYAMSWFRQAPGKEREFVAGVSRDGLTTLYADSVKGRFTMSRDNAKNTVDLQMNSVKAEDTAVYYCAIVITGVWNKVDVNSRSYHYWGQGTQVTVSS | 2.3
9 | IGF1R3 (antibody, V domains shown) VH: QVKLEESGGGLVQAGGSLRLSCVASEYPSNFYAMSWFRQAPGKEREFVAGVSRDGLTTLYADSVKGRFTMSRDNAKNTVDLQMNSVKAEDTAVYYCAIVITGVWNKVDVNSRSYHYWGQGTQVTVSS | 0.9
10 | IGF1R3_24_86 (antibody, V domains shown) VH: QVKLEESGGGLVQAGGSLRLSCCASEYPSNFYAMSWFRQAPGKEREFVAGVSRDGLTTLYADSVKGRFTMSRDNAKNCVDLQMNSVKAEDTAVYYCAIVITGVWNKVDVNSRSYHYWGQGTQVTVSS | 5.3
11 | IGF1R4_22_88 (antibody, V domains shown) VH: QVKLEESGGGLVQAGGSLRLCCEVSGGTVSPTAMGWFRQAPGKEREFVGHITWSRGTTRVASSVKDRFTISRDSAKNTVCLQMNSLKSEDTAVYYCAASTFLRILPEESAYTYWGQGTQVTVSS | 0.5
12 | IGF1R4_6_119 (designed binder) QVKLECSGGGLVQAGGSLRLSCEVSGGTVSPTAMGWFRQAPGKEREFVGHITWSRGTTRVASSVKDRFTISRDSAKNTVYLQMNSLKSEDTAVYYCAASTFLRILPEESAYTYWCQGTQVTVSS | 0.3
13 | IGF1R4_24_86 (antibody, V domains shown) VH: QVKLEESGGGLVQAGGSLRLSCCVSGGTVSPTAMGWFRQAPGKEREFVGHITWSRGTTRVASSVKDRFTISRDSAKNCVYLQMNSLKSEDTAVYYCAASTFLRILPEESAYTYWGQGTQVTVSS | 1.1
14 | IGF1R4 (antibody, V domains shown) VH: QVKLEESGGGLVQAGGSLRLSCEVSGGTVSPTAMGWFRQAPGKEREFVGHITWSRGTTRVASSVKDRFTISRDSAKNTVYLQMNSLKSEDTAVYYCAASTFLRILPEESAYTYWGQGTQVTVSS | 0.3
15 | IGF1R4_4_25 (antibody, V domains shown) VH: QVKCEESGGGLVQAGGSLRLSCECSGGTVSPTAMGWFRQAPGKEREFVGHITWSRGTTRVASSVKDRFTISRDSAKNTVYLQMNSLKSEDTAVYYCAASTFLRILPEESAYTYWGQGTQVTVSS | 0.5
16 | IGF1R5_4_25 (antibody, V domains shown) VH: QVKCEESGGGLVQAGGSLRLSCACSGRTIDNYAMAWSRQAPGKDREFVATIDWGDGGARYANSVKGRFTISRDNAKGTMYLQMNNLEPEDTAVYSCAMARQSRVNLDVARYDYWGQGTQVTVSS | 0.8
17 | IGF1R5_22_88 (antibody, V domains shown) VH: QVKLEESGGGLVQAGGSLRLCCAASGRTIDNYAMAWSRQAPGKDREFVATIDWGDGGARYANSVKGRFTISRDNAKGTMCLQMNNLEPEDTAVYSCAMARQSRVNLDVARYDYWGQGTQVTVSS | 1.4
18 | IGF1R5 (antibody, V domains shown) VH: QVKLEESGGGLVQAGGSLRLSCAASGRTIDNYAMAWSRQAPGKDREFVATIDWGDGGARYANSVKGRFTISRDNAKGTMYLQMNNLEPEDTAVYSCAMARQSRVNLDVARYDYWGQGTQVTVSS | 1.1
